Assay results published in patent publication US20260152573A1.

Key:
[1] = target: FcRn (cells of the occupancy assay not stated) (UniProt P55899); assay: FcRn occupancy assay, cells not given
[2] = target: neonatal Fc receptor (FcRn), endogenous in U937 cells (human) (UniProt P55899); assay: FcRn occupancy, FACS, U937 cells, with albumin
[3] = target: FcRn-L322A/L323A expressed in HEK293 cells (human) (UniProt P55899); assay: FcRn occupancy, FACS, HEK293-FcRn-mut cells, with albumin
[4] = target: FcRn-L322A/L323A expressed in HEK293 cells (human) (UniProt P55899); assay: FcRn occupancy, FACS, HEK293-FcRn-mut cells, without albumin
[5] = target: neonatal Fc receptor (FcRn), endogenous in U937 cells (human) (UniProt P55899); assay: cell-based FcRn occupancy assay on U937 cells, flow cytometry; free FcRn stained with anti-FcRn-Fab AF647

- IC50 [1]: 6 nM
- % max occupancy [2]: 56.8%
- IC50 [2]: 4.8 nM
- % max occupancy [3]: 57.7%
- IC50 [3]: 16.1 nM
- IC50 [4]: 6.8 nM
- IC50 (read off the curve) [5]: 0.3 nM
Substance: efgartigimod
